The source of these data is patent US20060160174A1, “Modified l49-sfv exhibiting increased stability and methods of use thereof” (priority 2002, published 2006).

Positions count from the first letter of the chain named. In names and notes the source's numbering stands.

First the molecules themselves.
B1: FP95: parental (wt) L49-sFv-bL fusion protein refolded from E. coli inclusion bodies (protein)
scFv: MEVQLQESGPSLVKPSQTLSLTCSVTGDSITSGYWNWIRKFPGNKLEYMGYISDSGITYYNPSLKSRISITRDTSKNQYYLQLNFVTAEDTATYNCARRTLATYYAMDYWGQGTSVTVSSGSTSGSGKPGSGEGSTKGDFVMTQTPLSLPVSLGDQASISCRASQSLVHSNGNTYLHWYLQKPGQSPKLLIYRVSNRFSGVPDRFSGSGSGTDFTLKISRVEAEDLGVYFCSQSTHVPPTFGGGTKLEIKRTPVSEKQLAEVVANTITPLMKAQSVPGMAVAVIYQGKPHYYTFGKADIAANKPVTPQTLFELGSISKTFTGVLGGDAIARGEISLDDAVTRYWPQLTGKQWQGIRMLDLATYTAGGLPLQVPDEVTDNASLLRFYQNWQPQWKPGTTRLYANASIGLFGALAVKPSGMPYEQAMTTRVLKPLKLDHTWINVPKAEEAHYAWGYRDGKAVRVSPGMLDAQAYGVKTNVQDMANWVMANMAPENVADASLKQGIALAQSRYWRIGSMYQGLGWEMLNWPVEANTVVETSFGNVALAPLPVAEVNPPAPPVKASWVHKTGSTGGFGSYVAFIPEKQIGIVMLANTSYPNPARVEAAYHILEALQ
B2: FP960: L49-sFv-bL double mutant F H82B S, N H91 Y (protein)
scFv: B1 scFv with F85S, N95Y
B3: FP990: L49-sFv-bL triple mutant K H39 Q, F H82B S, N H91 Y (protein)
scFv: B1 scFv with K40Q, F85S, N95Y
B4: FP965: L49-sFv-bL double mutant K H39 Q, N H91 Y (protein)
scFv: B1 scFv with K40Q, N95Y
B5: FP999: triple mutant K H39 Q, F H82B S, N H91 Y in reverse bL-L49-sFv orientation (β-lactamase at amino terminus) (protein)
chain: TPVSEKQLAEVVANTITPLMKAQSVPGMAVAVIYQGKPHYYTFGKADIAANKPVTPQTLFELGSISKTFTGVLGGDAIARGEISLDDAVTRYWPQLTGKQWQGIRMLDLATYTAGGLPLQVPDEVTDNASLLRFYQNWQPQWKPGTTRLYANASIGLFGALAVKPSGMPYEQAMTTRVLKPLKLDHTWINVPKAEEAHYAWGYRDGKAVRVSPGMLDAQAYGVKTNVQDMANWVMANMAPENVADASLKQGIALAQSRYWRIGSMYQGLGWEMLNWPVEANTVVETSFGNVALAPLPVAEVNPPAPPVKASWVHKTGSTGGFGSYVAFIPEKQIGIVMLANTSYPNPARVEAAYHILEALQMHGTKLMEVQLQESGPSLVKPSQTLSLTCSVTGDSITSGYWNWIRQFPGNKLEYMGYISDSGITYYNPSLKSRISITRDTSKNQYYLQLNSVTAEDTATYYCARRTLATYYAMDYWGQGTSVTVSSGSTSGSGKPGSGEGSTKGDFVMTQTPLSLPVSLGDQASISCRASQSLVHSNGNTYLHWYLQKPGQSPKLLIYRVSNRFSGVPDRFSGSGSGTDFTLKISRVEAEDLGVYFCSQSTHVPPTFGGGTKLEIKR
B6: FP930: L49-sFv-bL with mutation K H39 Q (protein)
scFv: B1 scFv with K40Q
B7: FP945: L49-sFv-bL with mutation F H82B S (protein)
scFv: B1 scFv with F85S
B8: FP950: L49-sFv-bL with mutation N H91 Y (protein)
scFv: B1 scFv with N95Y

In one experiment the target is T1, Recombinant p97 (Homo sapiens, UniProt P08582).
T1 construct: Soluble p97 (amino acids 20-710 of human p97 precursor); 6xHis; made in house
T1 sequence (P08582 20-710): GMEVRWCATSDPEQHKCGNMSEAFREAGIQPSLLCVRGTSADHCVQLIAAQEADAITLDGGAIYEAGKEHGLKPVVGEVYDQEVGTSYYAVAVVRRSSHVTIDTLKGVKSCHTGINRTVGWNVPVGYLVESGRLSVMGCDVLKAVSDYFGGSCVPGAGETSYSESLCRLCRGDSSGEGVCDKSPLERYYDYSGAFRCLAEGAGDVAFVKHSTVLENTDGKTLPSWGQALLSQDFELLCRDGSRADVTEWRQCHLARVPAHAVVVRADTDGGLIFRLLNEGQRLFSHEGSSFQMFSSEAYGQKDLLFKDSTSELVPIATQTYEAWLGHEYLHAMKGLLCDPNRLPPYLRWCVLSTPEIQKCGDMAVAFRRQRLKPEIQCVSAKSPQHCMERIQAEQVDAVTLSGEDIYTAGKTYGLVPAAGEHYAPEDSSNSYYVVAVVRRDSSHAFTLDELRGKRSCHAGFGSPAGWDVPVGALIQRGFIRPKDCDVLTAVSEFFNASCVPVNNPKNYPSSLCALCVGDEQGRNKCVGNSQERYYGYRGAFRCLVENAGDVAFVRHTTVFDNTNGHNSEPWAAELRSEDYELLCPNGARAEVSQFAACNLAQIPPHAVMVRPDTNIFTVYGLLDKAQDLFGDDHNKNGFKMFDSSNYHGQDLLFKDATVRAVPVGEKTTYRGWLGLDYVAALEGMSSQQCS
Briefly: binding affinity by surface plasmon resonance (Biacore 2000). The conditions noted are these: 25° C., immobilized p97, 1:1 model, error in last digit in parentheses. As to the method: The buffer used in the study was PBS, 0.005% P20, 0.2 mg/mi BSA. Antigen was immobilized on one flow cell surface of a CM5 sensor chip and the others were left blank to serve as reference surfaces. For each scFv, triplicates of 0, 0.5, 2.8, 8.3, 25, 75 and 225 nM were injected across the immobilized antigen. The association and dissociation phases were monitored for 1 and 20 minutes, respectively. The antigen surface was regenerated with four 18-second pulses of 2.5 mM NaOH between injections.
The binding affinities of double mutants FP960 and FP965 and triple mutants FP990 and FP999 were compared to the parental molecule by surface plasmon resonance. Recombinant p97 was immobilized on a BIACore CM5 sensor chip and varying concentrations of each scFv fusion protein were injected across the chip in triplicate.
(In general: SPR reads the build-up and loss of mass on a sensor chip optically.)
In the case of B1, the ka was 3.038(2) × 10^5 M^−1 s^−1 and the kd is given as 7.004(5) × 10^−4 s^−1.

Consider B2, for which the ka is recorded as 3.640(4) × 10^5 M^−1 s^−1 and the kd is 6.383(7) × 10^−4 s^−1.

As for B3, the ka is on record as 4.476(1) × 10^5 M^−1 s^−1 and the kd is 7.819(3) × 10^−4 s^−1.

As to B4, the ka is listed as 4.000(6) × 10^5 M^−1 s^−1 and the kd is 7.65(1) × 10^−4 s^−1.

On to B5, for which the ka is listed as 3.373(3) × 10^5 M^−1 s^−1 and the kd is listed as 5.755(7) × 10^−4 s^−1.

The subject of another experiment is H3677 human melanoma xenografts.
Assay: not given
Particulars: fusion protein 1 mg/kg i.v. followed 24 h later by C-Mel 100 mg/kg, q7dx3.
As for B3, the tumor response result was “significant tumor regression”.

Consider B5, for which the tumor response result was “significant tumor regression”.

The target of another experiment is T2, purified p97 antigen (Homo sapiens, UniProt P08582).
T2 construct: Soluble p97 (amino acids 20-710 of human p97 precursor); 6xHis; made in house
T2 sequence (P08582 20-710): T1 sequence (P08582 20-710)
Briefly: size exclusion chromatography (SEC) binding assay, 2:1 p97 antigen to L49-sFv-bL. The conditions noted are these: purified protein after ion exchange. The source says: Double mutants FP960 and FP965 and triple mutant FP990 all show improved refolding activity in crude lysates compared to the parental molecule, and therefore, all three mutant molecules were selected for further analysis. Proteins were expressed at the 1L scale in shake flasks as described in Materials and Methods, supra. Inclusion bodies (IBs) were obtained at a typical yield of 25% (±10%) wet IB mass/wet cell mass. Renatured L49-sFv-bL was purified by aminophenylboronate chromatography, dialyzed into 10 mM Na2PO4 and loaded onto Macro-prep HS resin. Fusion proteins were eluted in a stepwise fashion employing 250 mM NaCl. […] Mutants FP965 and FP990 were greater than 95% monomeric as shown by SEC-HPLC. However, FP960 contained only 55% monomer after cation exchange purification, possibly indicating a key role for the lysine residue at position H39 in refolding. The parental molecule, FP95, was present as 2 bands following aminophenylboronate chromatography. After ion-exchange chromatography only the upper of these 2 bands was eluted. A size exclusion chromatography (SEC) binding assay was developed in which a 2:1 ratio of purified p97 antigen to purified L49-sFv-bL was mixed and analyzed by HPLC-SEC (data not shown).
For orientation: In gel filtration, larger molecules generally elute earlier.
As for B1, the “antigen binding in SEC assay” value is given as “bound antigen completely”.

In the case of B5, the “antigen binding in SEC assay” value was “bound completely to antigen”.

The next experiment has as its target T3, soluble p97 (amino acids 20-710 of human p97 precursor) (Homo sapiens, UniProt P08582).
T3 construct: Soluble p97 (amino acids 20-710 of human p97 precursor); 6xHis; made in house
T3 sequence (P08582 20-710): T1 sequence (P08582 20-710)
Briefly: solid-phase p97 binding assay of crude refolded fusion proteins (refolding efficiency). The conditions noted are these: crude refolds normalized on β-lactamase activity. The protocol: For small scale expression BL21([DE3) (Novagen) were transformed with parental and mutant constructs and single colonies was used to inoculate 100 ml Terrific Broth II (TB) (QBIOGENE). Cells were induced at an OD of 1.0 with 1 mM IPTG (Sigma). Cells were harvested following overnight incubation and inclusion bodies were purified from the cell extracts using B-Per (Novagen) according to the manufacturers instructions. Inclusion body pellets were resuspended in 8 M urea, 2 mM DTT, 50 mM Tris.Cl pH 8.0 at a concentration of 50 mg/ml. Inclusion bodies were refolded overnight in a 50-fold dilution of 2 M urea, 0.3 M L-arginine, 50 mM Tris.Cl pH 8.0, 1 mM reduced glutathione, 0.1 mM oxidized glutathione. Protein was then dialyzed into PBS and fusion protein concentration was determined by measuring β-lactamase activity using colorimetric substrate nitrocefin.
Soluble p97 (amino acids 20-710 of human p97 precursor) was cloned into pSecTag2 (Invitrogen), incorporating an Ig Kappa leader sequence and a 6× his tag, and transfected into CHO cells. Stable transformants were selected and secreted protein was purified from conditioned medium on a metal chelate affinity column. Assays were performed by coating polystyrene 96-well plates with 2 μg/ml soluble p97 in PBS overnight. The plates were blocked by adding 1% bovine serum albumin in PBS for 1 hour at room temperature. Plates were emptied and fresh blocking reagent containing serial dilutions of L49-sFv-bL samples was added. Following 1 hour at room temperature the plates were washed and developed with 0.1 ml of colorimetric β-lactamase substrate nitrocefin solution at 0.1 mM in PBS containing 1% DMSO. Absorbance measurements were read in an ELISA plate reader using a 490 nm filter with 610 m as the reference wavelength.
The unusual residues in the L49 scFv framework were mutated to the most frequently occurring residue for that position in the Kabat database (Chowdhury et al., 1998, J. Mol. Biol. 281, 917-928). […] Binding to p97 was then determined using a solid-phase binding assay as described in Section 6.1.3, supra.
Consider B6, for which the “antigen binding of refolded mutant compared to parental L49-sFv-bL (FP95)” value (“antigen binding of refolded mutant” below) is given as “significant increases in antigen binding”.

As to B7, the “antigen binding of refolded mutant” value is “significant increases in antigen binding”.

As for B8, the “antigen binding of refolded mutant” value is listed as “significant increases in antigen binding”.
